Drawing on US20190000928A1, this text covers GLP-2R (EC50, nM); CRE luciferase reporter in HEK293-GLP-2R-CRE cells, GCGR (EC50, nM); CRE luciferase reporter in HEK293-GCGR-CRE cells and GLP-1R (EC50, nM); CRE luciferase reporter in HEK293-GLP-1R-CRE cells for 2 molecules.

Positions of bridges follow the written chain, without caps; N, C: chain ends. Non-standard residues stand in square brackets, D forms with d. No end group written: not given here. L5 = not defined here; L6 = not defined here

Common to all, as to experiment: cell-based or functional assay
Experiment [1] concerns the target human glucagon-like peptide 2 receptor (GLP-2R) (human) (UniProt O95838).
Experiment [2] concerns the target human glucagon receptor (GCGR) (human) (UniProt P47871).
Experiment [3] deals with human glucagon-like peptide 1 receptor (GLP-1R) (human) (UniProt P43220).
human glucagon-like peptide 1 receptor (GLP-1R) (human), sequence (P43220 24-463): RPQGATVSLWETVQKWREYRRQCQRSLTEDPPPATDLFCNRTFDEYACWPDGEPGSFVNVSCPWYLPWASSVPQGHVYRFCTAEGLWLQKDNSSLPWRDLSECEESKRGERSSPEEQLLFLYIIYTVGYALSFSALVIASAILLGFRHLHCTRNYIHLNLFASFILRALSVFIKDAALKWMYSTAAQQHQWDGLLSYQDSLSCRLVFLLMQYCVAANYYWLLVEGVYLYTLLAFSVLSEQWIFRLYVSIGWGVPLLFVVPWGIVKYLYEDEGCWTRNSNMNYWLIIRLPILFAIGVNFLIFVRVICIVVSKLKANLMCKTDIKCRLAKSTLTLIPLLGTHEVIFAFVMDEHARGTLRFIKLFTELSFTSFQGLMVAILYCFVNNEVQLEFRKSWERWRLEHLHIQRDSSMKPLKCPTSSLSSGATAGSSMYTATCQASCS

human glucagon-like peptide 2 receptor (GLP-2R) (human), sequence (O95838 whole entry): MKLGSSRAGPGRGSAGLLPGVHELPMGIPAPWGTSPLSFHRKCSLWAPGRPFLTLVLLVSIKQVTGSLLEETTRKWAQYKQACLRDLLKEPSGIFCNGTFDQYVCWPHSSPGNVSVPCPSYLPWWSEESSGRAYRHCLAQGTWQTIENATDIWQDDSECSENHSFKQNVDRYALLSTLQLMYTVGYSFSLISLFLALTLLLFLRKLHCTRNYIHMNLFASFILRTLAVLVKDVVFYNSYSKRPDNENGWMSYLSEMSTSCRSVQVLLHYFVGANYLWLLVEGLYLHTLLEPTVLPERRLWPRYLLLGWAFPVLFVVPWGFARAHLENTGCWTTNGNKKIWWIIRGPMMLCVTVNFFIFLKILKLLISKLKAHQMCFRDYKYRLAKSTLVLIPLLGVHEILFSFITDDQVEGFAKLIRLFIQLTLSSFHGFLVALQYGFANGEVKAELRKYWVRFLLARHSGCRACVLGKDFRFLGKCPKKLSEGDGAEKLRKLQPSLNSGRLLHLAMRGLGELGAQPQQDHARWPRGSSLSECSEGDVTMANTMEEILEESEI
human glucagon receptor (GCGR) (human), sequence (P47871 26-477): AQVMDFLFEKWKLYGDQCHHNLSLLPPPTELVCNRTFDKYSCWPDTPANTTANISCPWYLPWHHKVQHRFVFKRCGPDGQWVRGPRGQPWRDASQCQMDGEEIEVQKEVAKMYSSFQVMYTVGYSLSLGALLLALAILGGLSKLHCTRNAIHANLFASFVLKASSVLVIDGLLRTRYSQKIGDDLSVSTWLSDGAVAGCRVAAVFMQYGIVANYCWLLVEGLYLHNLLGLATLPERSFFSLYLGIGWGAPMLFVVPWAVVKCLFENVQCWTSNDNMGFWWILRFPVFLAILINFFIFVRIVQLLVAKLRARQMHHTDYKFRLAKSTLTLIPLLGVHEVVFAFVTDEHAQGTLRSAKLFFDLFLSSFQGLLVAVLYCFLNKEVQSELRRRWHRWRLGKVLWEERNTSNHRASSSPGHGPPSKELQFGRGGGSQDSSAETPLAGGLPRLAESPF

B1: mTA 7: GLP-2 (G) and L6 (peptide)
chain: HGDGSFSDEMKTILDNLKARDFINWLIQTKITD
modifications: linker 11-18 via L6; reading uncertain; also: fatty acid attached to the staple, identity not given here
In turn, B1 yielded a GLP-2R (EC50, nM); CRE luciferase reporter in HEK293-GLP-2R-CRE cells in experiment [1] of 0.068 nM.

B2: mTA 6: GLP-1/Glucagon (D) and L5 (peptide)
chain: H[dS]QGTFTSDYSKYLDEKAAKEFIKWLLNGGPSSGAPPPS
modifications: linker 17-24 via L5; reading uncertain; also: fatty acid attached to the staple, identity not given here, printed as HsQGTFTSDYSKYLDEXAAKEFIXWLLNGGPSSGAPPPS
In experiment [2], B2 returned a GCGR (EC50, nM); CRE luciferase reporter in HEK293-GCGR-CRE cells of 0.62 nM. In addition, the GLP-1R (EC50, nM); CRE luciferase reporter in HEK293-GLP-1R-CRE cells in experiment [3] worked out at 0.03 nM.
